{"source": "paper PMC11713712", "about": "“PFTAIRE peptide degrading cyclin Y and ameliorating cognitive deficits in mouse models of Alzheimer’s Disease” (Alzheimer's & Dementia, 2025)", "key": {"AD mouse models": {"system": "AD mouse models", "experiment": "Behavior tests in AD mouse models after intravenous injection", "type": "in vivo", "conditions": "intravenously injected", "source_text": "(§1) Utilizing solid‐phase peptide synthesis, PFTAIRE peptide was produced."}, "CCNY protein [1]": {"target": "T1, CCNY protein (Homo sapiens, UniProt Q8ND76)", "T1 sequence (Q8ND76 whole entry, species assumed)": "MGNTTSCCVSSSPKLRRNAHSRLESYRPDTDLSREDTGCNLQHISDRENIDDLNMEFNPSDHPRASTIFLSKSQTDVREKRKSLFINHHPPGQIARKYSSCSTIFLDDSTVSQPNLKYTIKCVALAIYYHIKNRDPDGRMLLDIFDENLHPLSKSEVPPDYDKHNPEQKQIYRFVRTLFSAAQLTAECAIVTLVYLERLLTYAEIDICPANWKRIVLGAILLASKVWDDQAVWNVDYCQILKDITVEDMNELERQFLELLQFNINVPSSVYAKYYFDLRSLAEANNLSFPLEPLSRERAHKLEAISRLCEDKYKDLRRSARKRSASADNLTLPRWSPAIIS", "experiment": "Binding of PFTAIRE peptide to CCNY protein in in vitro studies", "source_text": "as §1"}, "CCNY protein [2]": {"target": "T1, CCNY protein", "experiment": "CCNY protein level", "source_text": "as §1"}, "[3]": {"source_text": "Abstract Background Cyclin Y (CCNY) is a member of cyclin protein family inhibiting long‐term synaptic plasticity, which is related to the learning and memory function in neuronal system. Recently, CCNY has been reported to associate with the cognitive deficits in Alzheimer’s disease (AD). […] This peptide is derived from the domain of cyclin‐dependent kinase 14, a kinase degrading CCNY protein, and this domain is essential for the binding to CCNY. Utilizing solid‐phase peptide synthesis, PFTAIRE peptide was produced. […] We intravenously injected PFTAIRE peptide to AD mouse models and performed behavior tests."}}}
{"substance": "PFTAIRE peptide: Peptide derived from the domain of cyclin‐dependent kinase 14 essential for binding to CCNY; produced by solid‐phase peptide synthesis", "values": [{"measurement": "memory impairments in behavior tests", "setting": "AD mouse models", "value": "prevents memory impairments"}, {"measurement": "binding to CCNY protein", "setting": "CCNY protein [1]", "value": "binds to CCNY protein"}, {"measurement": "CCNY protein level", "setting": "CCNY protein [2]", "value": "diminish CCNY protein level"}, {"measurement": "plasma stability", "setting": "[3]", "value": "confirmed the plasma and liver microsomal stability"}, {"measurement": "liver microsomal stability", "setting": "[3]; liver microsomes", "value": "confirmed the plasma and liver microsomal stability"}]}
